Measured values as given in patent publication US20130280162A1 (IFOM FONDAZIONE ISTITUTO FIRC DI ONCOLOGIA MOLECOLARE, published 2013).

How the values were obtained:
[1] = target: T1, urokinase-type plasminogen activator (uPA) (human, UniProt P00749 21-431); assay: plate assay: increasing uPAR/mFc on immobilized uPA, anti-mouse Fc and Eu-streptavidin (FIG. 4A)
T1 construct: also called pro-uPA; immobilized uPA
Description: Immobilized uPA was incubated with increasing concentrations of uPAR tagged with a mouse Fc (uPAR/mFc). After washing bound uPAR/mFc was quantified using a biotinylated anti-mouse Fc antibody and Europium labeled streptavidin. Note that uPAR/mFc display specific high-affinity binding to immobilized uPA.
(§1) 96-well immuno plates (NUNC MaxiSorb, blackwell) were coated with pro-uPA or VN (100 μl, 10 nM) diluted in coating buffer (50 mM sodium carbonate, pH 9.6) at 4° C. ON. Plates were washed with wash buffer (phosphate buffered saline (PBS) containing 0.1% Tween-20 (PBS-T)) and non-specific binding sites blocked (0.15 ml/well) with blocking buffer (PBS containing 2% bovine serum albumin (BSA)) for 1-2 hour at RT. After washing with PBS-T, wells were incubated with uPAR/mFc (1 nM) in the presence or absence of the agonists and antagonists to be tested prepared in dilution buffer (PBS containing 1% BSA). The binding was allowed to occur for 1-2 hours at RT and the plates washed three times with wash buffer. Bound uPAR/mFc was detected by sequential incubations with a biotinylated goat anti-mouse Fc antibody (Sigma) and Eu³⁺ labeled streptavidin (Perkin Elmer). Bound Eu³⁺ was quantified by dissociation-enhanced time-resolved fluorescence measurement using an Envision Xcite plate reader (Perkin Elmer) using the DELFIA protocol.

[2] = target: T2, vitronectin (VN) (human, UniProt P04004 20-478); assay: plate assay: uPAR/mFc (5 nM) with increasing uPA on immobilized VN (FIG. 4C)
T2 construct: also called immobilized VN
T2 sequence (P04004 20-478): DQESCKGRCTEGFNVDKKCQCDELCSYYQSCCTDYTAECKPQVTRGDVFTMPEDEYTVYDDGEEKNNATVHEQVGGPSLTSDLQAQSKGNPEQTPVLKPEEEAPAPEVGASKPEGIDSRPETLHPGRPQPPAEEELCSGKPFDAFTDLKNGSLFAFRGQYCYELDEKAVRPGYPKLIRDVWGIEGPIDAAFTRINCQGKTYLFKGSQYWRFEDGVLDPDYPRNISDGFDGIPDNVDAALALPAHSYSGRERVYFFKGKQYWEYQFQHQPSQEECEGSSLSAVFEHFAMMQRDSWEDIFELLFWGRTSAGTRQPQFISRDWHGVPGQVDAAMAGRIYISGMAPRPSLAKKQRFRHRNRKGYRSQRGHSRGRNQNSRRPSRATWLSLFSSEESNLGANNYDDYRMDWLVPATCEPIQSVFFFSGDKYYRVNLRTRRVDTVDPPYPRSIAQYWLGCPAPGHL
Description: as §1, with “After washing with PBS-T, wells were incubated with uPAR/mFc (1 nM) in the presence or absence of the agonists and antagonists to be tested prepared in dilution buffer (PBS containing 1% BSA).” left out
To test the activity of uPAR-lock as an antagonist of the uPAR:VN-interaction the author utilized a binding assay in which uPAR/mFc is allowed to bind immobilized VN in the presence of uPA (FIG. 4C). In this assay uPAR/mFc binds to immobilized VN with high affinity in an uPA-dependent manner. To test the activity of uPAR-lock the author conducted the experiment with a fixed concentration of uPAR/mFc (1 nM) and an excess of uPA (5 nM) mixed with increasing concentrations of uPAR-lock or uPA for comparison (FIG. 4D). […]

- binding result [1]: binds
- binding result [2]: binds
B1: uPAR/mFc (human uPAR tagged with a murine immunoglobulin heavy chain constant region) (Fc fusion)
chain: LRCMQCKTNGDCRVEECALGQDLCRTTIVRLWEEGEELELVEKSCTHSEKTNRTLSYRTGLKITSLTEVVCGLDLCNQGNSGRAVTYSRSRYLECISCGSSDMSCERGRHQSLQCRSPEEQCLDVVTHWIQEGEEGRPKDDRHLRGCGYLPGCPGSNGFHNNDTFHFLKCCNTTKCNEGPILELENLPQNGRQCYSCKGNSTHGCSSEETFLIDCRGPMNQCLVATGTHEPKNQSYMVRGCATASMCQHAHLGDAFSMNHIDVSCCTKSGCNHPDLDLEVLFQGPLEAGAG
notes: also called uPAR tagged with a mouse Fc; Fc-tagged uPAR; not shown: mouse immunoglobulin IgG1 heavy chain, amino acids 216-441 numbered according to Adetugbo 1978 (clone IRAVp968B035D); th
